This passage reports stoichiometry N and stoichiometry N (gp25 per gp24 (3:3)) results from article PMC9608196.

Test [1] deals with His6-tagged full-length gp24 (tail fiber protein of myocyanophage Pam3) (cyanophage Pam3). Kind of test: SEC; individually expressed His-gp24 or His-gp25; Superdex 200 Increase 10/300 column; peaks analysed by SDS-PAGE.
Test [2] shares this target. Description: SDS-PAGE of samples that were not boiled; purified protein treated with beta-mercaptoethanol, not boiled.
Test [3] has the same target. Kind of test: SEC; His-gp24 co-expressed with untagged gp25 in E. coli, purified by Ni-NTA; Superdex 200 Increase 10/300 column; peaks analysed by SDS-PAGE.
For test [4] the target is unchanged. Kind of test: SEC-MALS; Superdex 200 Increase 10/300 GL in 20 mM Tris-HCl pH 7.0, 100 mM NaCl, 7 mM beta-mercaptoethanol; 1 mg/mL, 100 uL.
For test [5], the target named is His6-tagged full-length gp25 (tail fiber chaperone of myocyanophage Pam3), expressed alone (cyanophage Pam3). Description: SEC; individually expressed His-gp24 or His-gp25; Superdex 200 Increase 10/300 column; peaks analysed by SDS-PAGE. In general terms: In gel filtration, larger molecules generally elute earlier.

A word on the stoichiometry N: it is the number of molecules, sites or subunits per partner or assembly. As for “His6-tagged full-length gp24 (tail fiber protein of myocyanophage Pam3) (natural protein)”, the stoichiometry N in test [1], in test [2], in test [3] and in test [4] was 3 each time.

In test [5], “His6-tagged full-length gp25 (tail fiber chaperone of myocyanophage Pam3), expressed alone (natural protein)” returned a stoichiometry N of 3.

The substance “gp25 (tail fiber chaperone of myocyanophage Pam3), untagged, co-expressed with His-gp24 (natural protein)” returned a stoichiometry N (gp25 per gp24 (3:3)) in test [4] of 1.
